{"source": "the nanobody polyreactivity screen of Harvey et al. (2022)", "data": [{"assay": "yeast display, Sf9 membrane polyspecificity reagent, FACS + sequencing; frameworks hold sequencing errors", "in_short": "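Galactose-induced (36–48 hours) yeast carrying a synthetic nanobody display library were exposed to 10% biotinylated, detergent-solubilized Sf9 membrane reagent at 4 °C for 1 hour. FACS followed streptavidin microbead enrichment, using low and high (top ~1%) gates for expression (anti-HA) and reagent binding (streptavidin). Colony PCR, MiSeq 2 × 250 sequencing and CDR-length filtering followed. Labels for polyreactivity reflect the gate of origin.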", "values": [{"sequence": "QLQLVDSGGGLVQAGGSLRLSCAASGFTLDYYAMGWYRQAPGKESELVAAISWSGGRTYYADSVKGRFTISRDNAKNTVYLQMNSLKPEDTAVYYCNASPYGRKYGILADGDYWGQGTQVTVSS", "polyreactivity (PSR sort gate)": "high polyreactivity"}, {"sequence": "QLQLVESAAGLFQAGVSHRLSCDASGSTLSQNSMGGYRQAPGKEREFVADISGSGDSTYYADSVKGRFTISRDNAKNTVYLQMNSLKAEDTAVYYCATPSPHVGLKWEYDYWGQGTQVTVSS", "polyreactivity (PSR sort gate)": "low polyreactivity"}, {"sequence": "QLQLVESGAGLVQAGGSLRLSCAASGSTFTVYGMAWYRQAPGKERELVAAITYSGGSTYYADSVKGRFTISRDNAKHTVYLTMNSLKPEDTGVYYCAAAGSQYYRRWYDYWGQGTQVTVSS", "polyreactivity (PSR sort gate)": "low polyreactivity"}, {"sequence": "QLQLVESGGGLVLAGGSLRLSCAASGYLFQRTAKGCYRQATGKVRELVSTISRGGARTSYAYSVKGRFTISSDNANNTVYLQMNSLKPEDTAVYYCAKSYRKAGGMWSYGYWGQGTQVTVSS", "polyreactivity (PSR sort gate)": "high polyreactivity"}, {"sequence": "QLQLVESGGGLVQAGGSLRISCAASGSTFFLNAMGWYRQAPGKERELVAAITSGSGNTYYADSVKGRFTISRDNAKNTVYLQMNSLKPADSAVYYCNVTRFVYRPYGLDRDDYWGQGTQGTVSS", "polyreactivity (PSR sort gate)": "low polyreactivity"}, {"sequence": "QLQLVESGGGLVQAGGSLRLSCAASASTFYRYAMCCYIQAPGKERELVAGISSSGGSTYYADSVKGRFTISRDNAKNTVYLQMNSLKPEDTAVYYCAAVGQWGYGYWGQGTQVTVSS", "polyreactivity (PSR sort gate)": "high polyreactivity"}, {"sequence": "QLQLVESGGGLVQAGGSLRLSCAASGFIFADYAMGWYRQAPGKERELVAAISSNGGSTYYADSVKGRFTISRDNAKNTVYLQMNSLKPEDTAVYYCAVRHRYYKDYEFDYWGQGTQVTVSS", "polyreactivity (PSR sort gate)": "high polyreactivity"}, {"sequence": "QLQLVESGGGLVQAGGSLRLSCAASGFTFGVYAMGWYRQAPGKERELVAAISTTVGSTYYADSVKGRYTISRDNAKNTVYLQMNSLKPEDTAVYYCAAEYTGYISYYIYEDWGQGTQVTVSS", "polyreactivity (PSR sort gate)": "low polyreactivity"}, {"sequence": "QLQLVESGGGLVQAGGSLRLSCAASGFTFSGYAMGWYRQAPGKERELVAAITKRGGSTYYADSVKGRFTISRDNAKNTVYLQMNSLKPEDTAVYYCAARGYISRYDARANAVQGNYWGQGTQVTVSS", "polyreactivity (PSR sort gate)": "high polyreactivity"}, {"sequence": "QLQLVESGGGLVQAGGSLRLSCAASGFTFYVNAMGWYRQDPGKETEFVAAIDWSDTSTYYADSVKGRFTISRDNAKNTVYLQMISLKPVDTAVYYCAADFSPYDYDYWGQGTQVTVSS", "polyreactivity (PSR sort gate)": "high polyreactivity"}, {"sequence": "QLQLVESGGGLVQAGGSLRLSCAASGGIFPNYVMGWYRKAPGKERELVAGITSGGNTNYADSVKGRFTISRDNAKNTVYLQMNSLKPEDTAVYYCAADGYRYSVYLIRNPMDYWGQGTQVTVSS", "polyreactivity (PSR sort gate)": "low polyreactivity"}, {"sequence": "QLQLVESGGGLVQAGGSLRLSCAASGGTFQPNAMGWYIQAPGKESELVAAISWSDGSTYYADSVKGRFTISRDYAKNTVYLQMNSLKPEDTAVDYCAADFTYYDSPYRDYNYESWGQGTQVTVSS", "polyreactivity (PSR sort gate)": "low polyreactivity"}, {"sequence": "QLQLVESGGGLVQAGGSLRLSCAASGIIFRYNTKGSYIQAPGKESELVAAIRTTGGSTYYADSVKGRFTISRDNAKNTVYLQMNSLKPEDPAVYYCAAVGFGRQGQEDYWGHGTQVTVSS", "polyreactivity (PSR sort gate)": "low polyreactivity"}, {"sequence": "QLQLVESGGGLVQAGGSLRLSCAASGITFQWYAMGWYRQAPGKERELVARISSGGSTNYADSVKGRFTISCDNAKYTVYLQMNSVKPEDTAVYYCNARYFWFDYWGQGTQVTVSS", "polyreactivity (PSR sort gate)": "high polyreactivity"}, {"sequence": "QLQLVESGGGLVQAGGSLRLSCAASGLIQANYAMGWYRQAPGKERELVAAISSSGGSTYSADSVKGRFSISRDNAKNTVYLQMKSLKPEDTAVYYCAAYPLYRRRWTGDYWGQGTQVTVSS", "polyreactivity (PSR sort gate)": "high polyreactivity"}, {"sequence": "QLQLVESGGGLVQAGGSLRLSCAASGNTYFWYAMGWYRQAPGKERELVAAITSGGSTTYADSVKGRFTISRHNGMNTVYLQMNSLKPEDTAVYYCAQYTRDIFAVTFYEGEDYWGQGSQVTVSS", "polyreactivity (PSR sort gate)": "low polyreactivity"}, {"sequence": "QLQLVESGGGLVQAGGSLRLSCAASGRIFHSYTMGCYTQAPGKHRELVSAITWSCGSTYYADSVKGRLTISRDHAKNTVYFQMNSLKAEDTSVFYCNAKRRVFRLSVTSAFDYWGQGTQVTVSS", "polyreactivity (PSR sort gate)": "high polyreactivity"}, {"sequence": "QLQLVESGGGLVQAGGSLRLSCAASGRIFQRYAMGWYRQAPGKERELVAGITSSGGSTYYADSVKGRFTISRDNAKNTVYLQMNSLKPEDTAVYYCNAGGELRYYGYRAGGTTRSYDYWGQGTQVTVSS", "polyreactivity (PSR sort gate)": "low polyreactivity"}, {"sequence": "QLQLVESGGGLVQAGGSLRLSCAASGRTFERNAMGWYRQARGQERELVAAITWSGVSTYYADSVKGRFTISRDNAKNTVYLQMNSLKPEDTAVYYCAADWDWRFHRMNYWGQGTQVTVSS", "polyreactivity (PSR sort gate)": "low polyreactivity"}, {"sequence": "QLQLVESGGGLVQAGGSLRLSCAASGRTLSRYAMGWYRQAPGNERELVAVISSRGGSTYYADSVKGRFTISRDNAKNTVYLRMNSLKPEDTAVFYCAAVRNRHGYDYWGQGTQVTVSS", "polyreactivity (PSR sort gate)": "high polyreactivity"}, {"sequence": "QLQLVESGGGLVQAGGSLRLSCAASGSIFDGNAMGWYRQAPGKERELVAAITNSGGSTYYADSVKGRFTISRDNAKNTVYLQMNSLKPEDTAVYYCNALPFAWRRYRWVRTMYYWGQGTQVTVSS", "polyreactivity (PSR sort gate)": "low polyreactivity"}, {"sequence": "QLQLVESGGGLVQAGGSLRLSCAASGSIFNIYAMGWYRQAPGKERELVATITGIADYTYYADSVMGRFTISRDNAKNTVYLQMNSLKPEDTAVYYCAADKYVSEYDYWGQGTQVTVSS", "polyreactivity (PSR sort gate)": "low polyreactivity"}, {"sequence": "QLQLVESGGGLVQAGGSLRLSCAASGSTFTWKAMGWYRQAPGKERELVAAITSGCRTYYADSVKGRFTISRDNAKNTVYIEMNSLKPEDTAVYYCAAKVRHYYSASNYYYWGQGTQVTVSS", "polyreactivity (PSR sort gate)": "high polyreactivity"}, {"sequence": "QLQLVESGGGLVQAGGSLRLSCAASGSTFVLYAKGWYRQAPGKERELVAAITWSGDDTYYADSVKGRFTISRDNEKNTVYLQMTSLKPEDTAVYSCAADGRGDLYVWPGIGGDYWGQGTQVTVSS", "polyreactivity (PSR sort gate)": "low polyreactivity"}, {"sequence": "QLQLVESGGGLVQAGGSLRLSCAASGSTSVTNAMGWYRQAPGKEREFVATINYSGTSTYYADSVKGRFTISRDNAKNTVYLQMNSLKPEDTAVYYCNAHDFGFYRFSLPGYDYWGQGTQVTVSS", "polyreactivity (PSR sort gate)": "low polyreactivity"}, {"sequence": "QLQLVESGGGLVQAGGSLRLSCAASGYTFKWYAMGCYRQAPGKERELVAAIRGSGGSSYYAVSVKGRFTISRDNAKNTVYLQMNSLKPEDTAGYYCNAVLRWAQNPRIFLGYDYWGQGTQVTVSS", "polyreactivity (PSR sort gate)": "high polyreactivity"}, {"sequence": "QLQLVESGGGLVQAGGSLRLSCAASVFTFYVNAMGWYRQAPGKERELVAAISSSGTRTYYADSVKGRFTISRDNAKNTVYLKMNSMKPEDTAVYYCAARAYQHYKWGQGTQVTVSS", "polyreactivity (PSR sort gate)": "high polyreactivity"}, {"sequence": "QLQLVESGGGLVQAGGSLRLSCAASVRTFNSYAMGRYRQAPGKERELVAGISTSGDNTYYADSVKGRFTISRDNAKNTVFLQMNSLKPEDSAVYYCATQFPPSTIYDYWGQGTQVTVSS", "polyreactivity (PSR sort gate)": "low polyreactivity"}, {"sequence": "QLQLVESGGGLVQAGGSLRLSFAAYGRTFTSNAKGWSRPAPGKERELVAGITSSTGNTHYADSVKGRFTSSRDNAKNTVNFQMNSLKPEDTAVFYCAAVYYVRGYWGTYSRWYDYWGQGTQVTVSS", "polyreactivity (PSR sort gate)": "high polyreactivity"}, {"sequence": "QLQLVESGGGLVQAGGSLRLTCAASGSIFEVKAMGWYRQAPGTERELVATITYSGGSTYYADSVKGRFTISRDNAKKTVYFQMNSLKPEDTAVYYCATHYVVWELYIYDYWGQGTQVTVSS", "polyreactivity (PSR sort gate)": "low polyreactivity"}, {"sequence": "QLQLVESGGGLVQAGGSLRLTCAASGSTFTKYDMGWYRQAPGKERELVAAIRSGGDTNYADSVKGRFTISRDNAKYTVYLQMNSLKPEDTAVYYCNTLRNWYYQFDFNYWGQGTQVTVSS", "polyreactivity (PSR sort gate)": "low polyreactivity"}, {"sequence": "QLQLVESGGGLVQAGGSRRISCAASGRTFDSNAMGSYRHAPGKERELVAAIYADSVKGRFTISRENAKNTVSLQMNFLKPEDTAVYYCAAETYSGQTYLGEYDFWGQGTQVTVSS", "polyreactivity (PSR sort gate)": "low polyreactivity"}, {"sequence": "QLQLVESGGGLVQARGSLRLICADSGRIFTSYTMGWYRQAPGKERELVAAIDWSGGTTYYADSVKGPFTISRDNAKNTVYFQMISLKPEDTAVYYCSALYVIVGYYTYEYWGQGTQVTVSS", "polyreactivity (PSR sort gate)": "low polyreactivity"}, {"sequence": "QLQLVESGRGLVQAGGSLRLSCAASGSTFQLYTMGLYRQAPGKERELVAAITGSGGSTYYADSVKGRFTISRDNAKNTVYLQMNSLKPEDTAVYYCAAKSSFRIAWEYYYWGQGTQGTVSS", "polyreactivity (PSR sort gate)": "high polyreactivity"}, {"sequence": "QLQLVESRGGLVQAGGSLRVSCAASGRISQIYAMGWSRQAPGKERELVARITSTDSTYYADSVKGRFTISRDNAKNTVYLQMNSLKPEDTAVYYCAASWWSPYDYWGQGTQVTVSS", "polyreactivity (PSR sort gate)": "low polyreactivity"}, {"sequence": "QLQLVESVGGLDQAGGSLRLSCAASGSIFIRNAIGSYRQAPGKERELVAAISSTGSTYYADSVKGRFTISRDNAKNTVYLQMNSLKPEDTAVYYCADYYTVAMDYWGQGTQVTVSS", "polyreactivity (PSR sort gate)": "low polyreactivity"}, {"sequence": "QLQLVESVGGLDQAGGSLRLSCAASRSNFGPYAIGWYRQAPGKERELVAAITWSGDSTYYADSVKGRFTISRDNEKNTVYLQMNSLKPEDTAVYYCAAETFIWGKGTQVTVSS", "polyreactivity (PSR sort gate)": "low polyreactivity"}, {"sequence": "QLQLVESVRGLVQAGGSLRLSCAASGGIFDTYAKGWYRQAPCKERELVASISRSGSTNYADSVKGRFTISRDNAKNTVYLQMNSLKPEDSAVYYCAADVFYSIYDYWGQGTQVTVSS", "polyreactivity (PSR sort gate)": "low polyreactivity"}, {"sequence": "QLQLVETGGGLVQAGGSLRLSCASSGRTFTAYAMVWYREAAGKESELVAAITLSGGRTYYADSVKGRFTISRDNAKNTVYLQMNSLKPEDTAVYYCATDYYWGQGTQVTVSS", "polyreactivity (PSR sort gate)": "high polyreactivity"}, {"sequence": "QLQQHESGGGLVQAGDSPRLSCAESDNIFPDSVMCWYLQAPGKERELVATIGFGATTNYADSVKGRFTISRDNAKNTVYLQMNCLKPEDTAVYYSAADPLNYEYFCYWGQGTQVTVSS", "polyreactivity (PSR sort gate)": "low polyreactivity"}, {"sequence": "QLQRVESGGGLVQAGGSLRLSCAASGSIFNENAMGWYIQAPGKERELVAGIDSGGNTYYADSVKGRFTISRDNAKNTVYLQMISLKPEDTAVYYCAKRGVPVRASATFLFEFDYWGQGTQVPVSS", "polyreactivity (PSR sort gate)": "low polyreactivity"}, {"sequence": "QQQLQESGSGLVQAGGSLRLSCAASGNIFQDWVMGWYRQAPGKERELVAAISPGAITYYADSVKGRFTISRDNAKNTVYLQTNSLKPEDTAVYYCAAYYIVEYLHGYWGQGTRVTVSS", "polyreactivity (PSR sort gate)": "low polyreactivity"}, {"sequence": "QVELVESGGALVQAGGSLSLSCAASGIIFSIYAMGWDRQAPGKERELVAAITYSGGRTYYADSVKGRFTISRDNAKNTVYLQMNSLKPEDTAVYYCAAVGYGEYYWGQGTQVTVSS", "polyreactivity (PSR sort gate)": "high polyreactivity"}]}]}
